*1 amine or outer side, *2 acyl side, *3 side chain or, on linkers, in order; H or OH if unused. Where a SMILES comes first, the peptide text is derived from it. Bridges are numbered along the chain shown (N, C = ends). Side-chain parts run from the residue outwards. [ ]: non-standard residue; d: D form. The star is where a group is joined. X1 = O=C([C@@H](Cc1ccccc1)N(c1c(NCCCCCN(O)[*:3])c(=O)c1=O)[*:1])[*:2]; X2 = CC(=O)N(O)CCCCCNC(=O)CCC(=O)N(O)CCCCCN*; Thr(ol) = C[C@@H](O)[C@H](N)CO; Suc = O=C(CCC(=O)[*:2])[*:1]
What was measured:
Parameters in all cases: species or system mice
[1] = tested on: AR42J (rat pancreatic cancer cell line) tumour; experiment: in vivo; settings: mouse
Method: (§1) PET-CT imaging and Biodistribution of Octreotate/tide Tracers. Female Balb/c nude mice (age 9 weeks) were inoculated subcutaneously on the right flank with 3×10^6 AR42J cells in PBS:Matrigel (1:1). Mice were weighed and tumours measured twice weekly using electronic callipers. Tumour volume (mm^3) was calculated as length^2×width/2. 12 mice were assigned for imaging and biodistribution studies (tumour volumes: 170-550 mm^3). DFOSqTIDE (2.5 MBq) and DFOSqTATE (2.2 MBq) were administered intravenously by tail vein injection to mice on. At 1, 2, 4 and 18 hr post injection three mice were anaesthetised using isoflurane and placed on the imaging bed of a G8 PET/CT scanner (Perkin Elmer). A CT scan was performed which was immediately followed by a 10 min static PET scan. PET images were reconstructed using the maximal likelihood and expectation maximization (ML-EM) algorithm. PET images were analysed using VivoQuant (Invicro) and Tumour SUVmax, Tumour SUVmax/background average (TBR) and Tumour SUVmax/liver average (TLR) determined. After imaging at 18 hr mice were euthanised and selected tissues were excised, weighed and counted using a Capintec (Captus 4000e) gamma counter. A separate cohort of 3 mice was harvested at 1 hr post injection for biodistribution analysis. The data was analysed using GraphPad Prism 7 and differences between tracers analysed using a t-test.
(§2) AR42J (rat pancreatic cancer cell line) tumour bearing Balb/c nude mice as described above were injected intravenously via tail vein injection with ^89ZrDFOSqTATE or ^89ZrDFOSqTIDE (2-3 MBq). At 1, 2, 4 and 18 h post-injection the mice were anaesthetised with isoflurane and imaged over 10 min. At 1 hr after injection of DFOSqTIDE and DFOSqTATE, uptake into kidney, tumour and liver was observed. Representative PET images of mice injected with DFOSqTIDE and DFOSqTATE are shown in FIG. 12 and quantitation of the tumour SUVmax for each radiotracer is summarised in FIG. 13a.
(§3) ^68GaDFOSq-TIDE and ^68GaDFOSq-TATE tracers were injected (2-3 MBq, 1 μg, 0.5 nmol) intravenously via tail vein to AR42J (rat pancreatic cancer cell line) tumour bearing Balb/c nude mice. PET images were acquired at 1 and 2 h post-injection (FIGS. 15a and b). […] Quantification of the uptake in the images using Standard Uptake Value (SUVmax=radioactivity in a tissue/injected activity/BW) confirms the higher uptake for ^68GaDFOSq-TATE (1 h; SUVmax 1.8±0.2, compared to 1.21±0.20, FIG. 15c). The higher tumor uptake of ^68GaDFOSqTATE was also associated with a higher degree of tumor retention at 2 h post injection with only a 5% reduction in SUVmax whereas the tumor SUVmax for ^68GaDFOSqTIDE reduced by 30% ^68GaDFOSqTATE at 2 h post injection. Both tracers clear rapidly from the blood and there is low uptake in bone consistent with stable gallium-68 complexes as well as low uptake in muscle. Both tracers have significant uptake in the kidneys and bladder.

[2] = tested on: AR42J (rat pancreatic cancer cell line) tumour; experiment: in vivo; settings: female, Balb/c nude, mouse, iv
Method: as §1, with “t-test. The high tumor uptake was confirmed by an ex vivo biodistribution study in the same mouse model where mice were injected with either ^68GaDFOSq-TIDE and ^68GaDFOSq-TATE (2-3 MBq, 1 μg, 0.5 nmol) and then euthanised at either 1 h or 2 h after administration. The amount of injected activity per gram of tissue (% IA/g) in the tumor and major organs was quantified (FIG. 16).” for “t-test.”

in vivo [3] = settings: female, Balb/c nude, mouse, iv, total radioactivity
Method: as §1, §2, §3

in vivo [4] = settings: female, Balb/c nude, mouse, iv, total radioactivity; remark: listed apart in the source
Method: as §1, with “t-test. The high tumor uptake was confirmed by an ex vivo biodistribution study in the same mouse model where mice were injected with either ^68GaDFOSq-TIDE and ^68GaDFOSq-TATE (2-3 MBq, 1 μg, 0.5 nmol) and then euthanised at either 1 h or 2 h after administration. The amount of injected activity per gram of tissue (% IA/g) in the tumor and major organs was quantified (FIG. 16).” for “t-test.”

[5] = Tumour uptake % IA/g 1 h post injection

SMILES | Tumour SUVmax 1 h pi [1] | Tumour SUVmax 18 h pi [1] | Tumour SUVmax Clearance % [1] [%] | Tumour Uptake % ID/g 1 h pi [2] [% ID/g] | Tumour Uptake % ID/g 18 h pi [2] [% ID/g] | SUV at 1 h (in vivo [3]) [SUV] | Reduction in tumor SUVmax at 2 h post injection [1] [%] | tissue uptake at 1 h (in vivo [4]; [5]) [%ID/g] | tissue uptake at 2 h (in vivo [4]; Tumour uptake % IA/g 2 h post injection) [%ID/g] | tissue uptake at 1 h (in vivo [4]; Uptake in the kidneys) [%ID/g] | tissue uptake at 1 h (in vivo [4]; Tumour Uptake % ID/g 1 h pi) [%ID/g] | tissue uptake at 18 h (in vivo [4]; Tumour Uptake % ID/g 18 h pi) [%ID/g] | tissue uptake at 2 h (in vivo [4]; Tumor uptake % ID/g 2 h post injection) [%ID/g]
CC(=O)N(O)CCCCCNC(=O)CCC(=O)N(O)CCCCCNC(=O)CCC(=O)N(O)CCCCCNc1c(N[C@H](Cc2ccccc2)C(=O)N[C@H]2CSSC[C@@H](C(=O)N[C@H](C(=O)O)[C@@H](C)O)NC(=O)[C@H]([C@@H](C)O)NC(=O)[C@H](CCCCN)NC(=O)[C@@H](Cc3c[nH]c4ccccc34)NC(=O)[C@H](Cc3ccc(O)cc3)NC2=O)c(=O)c1=O (89Zr complex, metal not drawn) [^89ZrDFOSqTATE] (H-[X1]([Suc-X2])CY[dW]KTCT-OH; disulfide 2-7) | 3.1 ± 0.2 | 1.3 ± 0.15 | 58 | 10.4 ± 0.5 | 4.9 ± 0.8 | – | – | – | – | – | – | – | –
CC(=O)N(O)CCCCCNC(=O)CCC(=O)N(O)CCCCCNC(=O)CCC(=O)N(O)CCCCCNc1c(N[C@H](Cc2ccccc2)C(=O)N[C@H]2CSSC[C@@H](C(=O)N[C@H](CO)[C@@H](C)O)NC(=O)[C@H]([C@@H](C)O)NC(=O)[C@H](CCCCN)NC(=O)[C@@H](Cc3c[nH]c4ccccc34)NC(=O)[C@H](Cc3ccc(O)cc3)NC2=O)c(=O)c1=O (68Ga complex, metal not drawn) [^68GaDFOSqTIDE] (H-[X1]([Suc-X2])CY[dW]KTC[Thr(ol)]; disulfide 2-7) | – | – | – | – | – | 1.21 ± 0.2 | 30 | 8.81 ± 1.03 | 4.4 ± 1.1 | 37.6 ± 3.5 | – | – | –
CC(=O)N(O)CCCCCNC(=O)CCC(=O)N(O)CCCCCNC(=O)CCC(=O)N(O)CCCCCNc1c(N[C@H](Cc2ccccc2)C(=O)N[C@H]2CSSC[C@@H](C(=O)N[C@H](CO)[C@@H](C)O)NC(=O)[C@H]([C@@H](C)O)NC(=O)[C@H](CCCCN)NC(=O)[C@@H](Cc3c[nH]c4ccccc34)NC(=O)[C@H](Cc3ccc(O)cc3)NC2=O)c(=O)c1=O (89Zr complex, metal not drawn) [^89ZrDFOSqTIDE] (H-[X1]([Suc-X2])CY[dW]KTC[Thr(ol)]; disulfide 2-7) | 1.1 ± 0.07 | 0.5 ± 0.01 | 55 | 3.4 ± 0.4 | 1.7 ± 0.1 | – | – | – | – | – | – | – | –
CC(=O)N(O)CCCCCNC(=O)CCC(=O)N(O)CCCCCNC(=O)CCC(=O)N(O)CCCCCNc1c(N[C@H](Cc2ccccc2)C(=O)N[C@H]2CSSC[C@@H](C(=O)N[C@H](CO)[C@@H](C)O)NC(=O)[C@H]([C@@H](C)O)NC(=O)[C@H](CCCCN)NC(=O)[C@@H](Cc3c[nH]c4ccccc34)NC(=O)[C@H](Cc3ccc(O)cc3)NC2=O)c(=O)c1=O [DFOSqTIDE] (H-[X1]([Suc-X2])CY[dW]KTC[Thr(ol)]; disulfide 2-7) | – | – | 55 | – | 1.5±0.1 | – | – | – | – | – | 3.4 ± 0.4 | 1.7 ± 0.1 | –
CC(=O)N(O)CCCCCNC(=O)CCC(=O)N(O)CCCCCNC(=O)CCC(=O)N(O)CCCCCNc1c(N[C@H](Cc2ccccc2)C(=O)N[C@H]2CSSC[C@@H](C(=O)N[C@H](C(=O)O)[C@@H](C)O)NC(=O)[C@H]([C@@H](C)O)NC(=O)[C@H](CCCCN)NC(=O)[C@@H](Cc3c[nH]c4ccccc34)NC(=O)[C@H](Cc3ccc(O)cc3)NC2=O)c(=O)c1=O (68Ga complex, metal not drawn) [^68GaDFOSqTATE] (H-[X1]([Suc-X2])CY[dW]KTCT-OH; disulfide 2-7) | – | – | – | – | – | 1.8 ± 0.2 | 5 | 9.8 ± 2.33 | – | 16 ± 3.27 | – | – | 9.22 ± 0.92

From patent US20220363623A1, “IMAGING AND THERAPEUTIC COMPOSITIONS” (priority 2019, published 2022)
